Test results taken from article PMC11727070, “Structure of the WIPI3/ATG16L1 Complex Reveals the Molecular Basis for the Recruitment of the ATG12~ATG5-ATG16L1 Complex by WIPI3” (Cells, 2024).

B1: ATG16L1(78–206) (domain or fragment, human, UniProt Q676U5 78-206, looked up)
chain: NDNQLQEMAQLRIKHQEELTELHKKRGELAQLVIDLNNQMQRKDREMQMNEAKIAECLQTISDLETECLDLRTKLCDLERANQTLKDEYDALQITFTALEGKLRKTTEENQELVTRWMAEKAQEANRLN
notes: Legends name it without Trx; source: E. coli BL21 (DE3), purified (Ni-NTA, Superdex 200)
B2: ATG16L1(78–197) (domain or fragment, human, UniProt Q676U5 78-197, looked up)
chain: NDNQLQEMAQLRIKHQEELTELHKKRGELAQLVIDLNNQMQRKDREMQMNEAKIAECLQTISDLETECLDLRTKLCDLERANQTLKDEYDALQITFTALEGKLRKTTEENQELVTRWMAE
notes: source: E. coli BL21 (DE3), purified (Ni-NTA, Superdex 200)
B3: ATG16L1(124–197) (domain or fragment, human, UniProt Q676U5 124-197, looked up)
chain: MQMNEAKIAECLQTISDLETECLDLRTKLCDLERANQTLKDEYDALQITFTALEGKLRKTTEENQELVTRWMAE
notes: as for B2
B4: ATG16L1(124–188) (domain or fragment, human, UniProt Q676U5 124-188, looked up)
chain: MQMNEAKIAECLQTISDLETECLDLRTKLCDLERANQTLKDEYDALQITFTALEGKLRKTTEENQ
notes: Parallel coiled-coil dimer in the crystal; also called ATG16L1 coiled-coil; source: E. coli BL21 (DE3), purified (Ni-NTA, Superdex 200)
B5: ATG16L1(78–247) (domain or fragment, human, UniProt Q676U5 78-247, looked up)
chain: NDNQLQEMAQLRIKHQEELTELHKKRGELAQLVIDLNNQMQRKDREMQMNEAKIAECLQTISDLETECLDLRTKLCDLERANQTLKDEYDALQITFTALEGKLRKTTEENQELVTRWMAEKAQEANRLNAENEKDSRRRQARLQKELAEAAKEPLPVEQDDDIEVIVDET
notes: Legends name it without Trx (while ATG2A is named Trx-ATG2A), so the tag may have been cleaved; also called central region of ATG16L1; source: E. coli BL21 (DE3), purified (Ni-NTA, Superdex 200)

Biological target: T1, GST-tagged WIPI3Δ (human, UniProt Q5MNZ6 8-344, without residues 264–281)
T1 construct: WIPI3, human, residues 8–344 with residues 264–281 removed; also called GST-WIPI3Δ; source: E. coli BL21 (DE3), purified (Ni-NTA, Superdex 200); not shown: GST, N-terminal, kept
Experiment: SEC; competition: a pre-formed complex incubated with an increasing molar ratio of the competitor, then SEC; fractions analysed by SDS-PAGE with Coomassie staining
Conditions: both partners purified

T1 sequence (Q5MNZ6 other isoform, or with tags, fused parts or gaps without residues 264–281 | without residues 264–281 | mutant): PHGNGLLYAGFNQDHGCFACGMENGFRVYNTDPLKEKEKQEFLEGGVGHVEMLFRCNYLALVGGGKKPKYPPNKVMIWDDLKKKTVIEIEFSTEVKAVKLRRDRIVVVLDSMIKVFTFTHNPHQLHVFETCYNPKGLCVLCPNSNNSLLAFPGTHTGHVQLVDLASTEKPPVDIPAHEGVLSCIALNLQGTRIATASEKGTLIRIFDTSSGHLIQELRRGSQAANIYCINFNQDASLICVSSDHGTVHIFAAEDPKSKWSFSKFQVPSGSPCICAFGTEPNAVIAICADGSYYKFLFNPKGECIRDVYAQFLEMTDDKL

Binding result, binds:
B1

Biological target: T2, SUMO-tagged WIPI3^Δ (human WIPI3 residues 8–344 without residues 264–281) (human, UniProt Q5MNZ6 8-344, without residues 264–281)
T2 construct: WIPI3, human, residues 8–344 with residues 264–281 removed; the WIPI3(75–80) region is retained; also called SUMO-WIPI3^Δ; loop-truncated WIPI3; source: E. coli BL21 (DE3), purified (Ni-NTA, Superdex 200); not shown: SUMO, N-terminal, kept
Experiment: SEC; purified proteins alone and mixed, Superdex 200 Increase 10/300 GL or Superdex 75 10/300 GL on an AKTA FPLC; mixture profile compared with the theoretical sum; fractions checked by SDS-PAGE
Conditions: both partners purified

T2 sequence (Q5MNZ6 other isoform, or with tags, fused parts or gaps without residues 264–281 | without residues 264–281 | mutant): as above

Binding result, binds:
B1
B2
B3
B4
B5
